Among the data in publication PMC6549151 (2019) are Kd values, retold here.

In the experiment the target is GPIIb/IIIa (Homo sapiens, UniProt P08514). The experiment is described as follows: spectrofluorometry titration.

Usually Kd stands for the constant that tells how readily two partners part at equilibrium.

B1: RusPep (Rusvikunin-II peptide) (peptide)
chain: PESGRCRGHLRRIYYNLES
Take B1: the Kd turned out to be 1600 nM.
